What was measured:
[1] = substrate: COc1ccc2c(CC(=O)N[C@H](CCCNC(=N)N)C(=O)N3CCC[C@H]3C(=O)N[C@@H](CC(C)C)C(=O)NCC(=O)N[C@@H](CCCCOCc3ccccc3)C(=O)N[C@@H](CNc3ccc([N+](=O)[O-])cc3[N+](=O)[O-])C(=O)N[C@@H](C)C(=O)N[C@H](CCCNC(=N)N)C(=O)N[C@H](CCC(=O)O)C(=O)N[C@H](CCCNC(=N)N)C(N)=O)cc(=O)oc2c1; assay: Km and kcat/Km of substrates with MMP-1; format: biochemical; settings: other: substrate cleavage by MMP-1
[2] = substrate: COc1ccc2c(CC(=O)N[C@@H](CCCNC(=N)N)C(=O)N3CCC[C@@H]3C(=O)N[C@@H](CC(C)C)C(=O)NCC(=O)N[C@@H](CC(C)C)C(=O)N[C@H](CNc3ccc([N+](=O)[O-])cc3[N+](=O)[O-])C(=O)N[C@@H](C)C(=O)N[C@H](CCCNC(=N)N)C(=O)N[C@@H](CCC(=O)O)C(=O)N[C@H](CCCNC(=N)N)C(N)=O)cc(=O)oc2c1; assay: Km and kcat/Km of substrates with MMP-1; format: biochemical; settings: other: substrate cleavage by MMP-1
[3] = substrate: COc1ccc2c(CC(=O)N[C@@H](CCCNC(=N)N)C(=O)N3CCCC3C(=O)N[C@@H](CC(C)C)C(=O)NCC(=O)N[C@@H](CC(C)C)C(=O)N[C@H](CNc3ccc([N+](=O)[O-])cc3[N+](=O)[O-])C(=O)N[C@@H](C)C(=O)N[C@H](CCCNC(=N)N)C(=O)N[C@@H](CCC(=O)O)C(=O)N[C@H](CCCNC(=N)N)C(N)=O)cc(=O)oc2c1; assay: purified protein, by the assay type; settings: other: substrate cleavage by MMP-9
[4] = substrate: COc1ccc2c(CC(=O)N[C@@H](CCCNC(=N)N)C(=O)N3CCC[C@@H]3C(=O)N[C@@H](CC(C)C)C(=O)NCC(=O)N[C@@H](CC(C)C)C(=O)N[C@H](CNc3ccc([N+](=O)[O-])cc3[N+](=O)[O-])C(=O)N[C@@H](C)C(=O)N[C@H](CCCNC(=N)N)C(=O)N[C@@H](CCC(=O)O)C(=O)N[C@H](CCCNC(=N)N)C(N)=O)cc(=O)oc2c1; assay: purified protein, by the assay type; settings: other: substrate cleavage by MMP-9
[5] = substrate: COc1ccc2c(CC(=O)N[C@H](CCCNC(=N)N)C(=O)N3CCC[C@H]3C(=O)N[C@@H](CC(C)C)C(=O)NCC(=O)N[C@@H](CCCCOc3ccccc3)C(=O)N[C@@H](CNc3ccc([N+](=O)[O-])cc3[N+](=O)[O-])C(=O)N[C@@H](C)C(=O)N[C@H](CCCNC(=N)N)C(=O)N[C@H](CCC(=O)O)C(=O)N[C@H](CCCNC(=N)N)C(N)=O)cc(=O)oc2c1; assay: Km and kcat/Km of substrates with MMP-9; format: biochemical; settings: other: substrate cleavage by MMP-9
[6] = substrate: COc1ccc2c(CC(=O)N[C@@H](CCCNC(=N)N)C(=O)N3CCCC3C(=O)N[C@@H](CC(C)C)C(=O)NCC(=O)N[C@@H](CC(C)C)C(=O)N[C@H](CNc3ccc([N+](=O)[O-])cc3[N+](=O)[O-])C(=O)N[C@@H](C)C(=O)N[C@H](CCCNC(=N)N)C(=O)N[C@@H](CCC(=O)O)C(=O)N[C@H](CCCNC(=N)N)C(N)=O)cc(=O)oc2c1; assay: Km and kcat/Km of substrates with MMP-9; format: biochemical; settings: other: substrate cleavage by MMP-9
[7] = substrate: COc1ccc2c(CC(=O)N[C@@H](CCCNC(=N)N)C(=O)N3CCC[C@H]3C(=O)N[C@@H](CC(C)C)C(=O)NCC(=O)N[C@@H](CCCCOCc3ccccc3)C(=O)N[C@@H](CNc3ccc([N+](=O)[O-])cc3[N+](=O)[O-])C(=O)N[C@@H](C)C(=O)N[C@@H](CCCNC(=N)N)C(=O)N[C@@H](CCC(=O)O)C(=O)N[C@@H](CCCNC(=N)N)C(N)=O)cc(=O)oc2c1; assay: Km and kcat/Km of substrates with MMP-9; format: biochemical; settings: other: substrate cleavage by MMP-9
[8] = substrate: COc1ccc2c(CC(=O)N[C@H](CCCNC(=N)N)C(=O)N3CCC[C@H]3C(=O)N[C@@H](CC(C)C)C(=O)NCC(=O)N[C@@H](CCCCOCc3ccccc3)C(=O)N[C@@H](CNc3ccc([N+](=O)[O-])cc3[N+](=O)[O-])C(=O)N[C@@H](C)C(=O)N[C@H](CCCNC(=N)N)C(=O)N[C@H](CCC(=O)O)C(=O)N[C@H](CCCNC(=N)N)C(N)=O)cc(=O)oc2c1; assay: Km and kcat/Km of substrates with MMP-9; format: biochemical; settings: other: substrate cleavage by MMP-9
[9] = substrate: COc1ccc2c(CC(=O)N[C@H](CCCNC(=N)N)C(=O)N3CCC[C@H]3C(=O)N[C@@H](CC(C)C)C(=O)NCC(=O)N[C@@H](CCCCOc3ccccc3)C(=O)N[C@@H](CNc3ccc([N+](=O)[O-])cc3[N+](=O)[O-])C(=O)N[C@@H](C)C(=O)N[C@H](CCCNC(=N)N)C(=O)N[C@H](CCC(=O)O)C(=O)N[C@H](CCCNC(=N)N)C(N)=O)cc(=O)oc2c1; assay: Km and kcat/Km of substrates with MMP-2; format: biochemical; settings: other: substrate cleavage by MMP-2
[10] = substrate: COc1ccc2c(CC(=O)N[C@@H](CCCNC(=N)N)C(=O)N3CCC[C@H]3C(=O)N[C@@H](CC(C)C)C(=O)NCC(=O)N[C@@H](CCCCOCc3ccccc3)C(=O)N[C@@H](CNc3ccc([N+](=O)[O-])cc3[N+](=O)[O-])C(=O)N[C@@H](C)C(=O)N[C@@H](CCCNC(=N)N)C(=O)N[C@@H](CCC(=O)O)C(=O)N[C@@H](CCCNC(=N)N)C(N)=O)cc(=O)oc2c1; assay: Km and kcat/Km of substrates with MMP-2; format: biochemical; settings: other: substrate cleavage by MMP-2
[11] = substrate: COc1ccc2c(CC(=O)N[C@H](CCCNC(=N)N)C(=O)N3CCC[C@H]3C(=O)N[C@@H](CC(C)C)C(=O)NCC(=O)N[C@@H](CCCCOCc3ccccc3)C(=O)N[C@@H](CNc3ccc([N+](=O)[O-])cc3[N+](=O)[O-])C(=O)N[C@@H](C)C(=O)N[C@H](CCCNC(=N)N)C(=O)N[C@H](CCC(=O)O)C(=O)N[C@H](CCCNC(=N)N)C(N)=O)cc(=O)oc2c1; assay: Km and kcat/Km of substrates with MMP-2; format: biochemical; settings: other: substrate cleavage by MMP-2
[12] = substrate: COc1ccc2c(CC(=O)N[C@@H](CCCNC(=N)N)C(=O)N3CCC[C@@H]3C(=O)N[C@@H](CC(C)C)C(=O)NCC(=O)N[C@@H](CC(C)C)C(=O)N[C@H](CNc3ccc([N+](=O)[O-])cc3[N+](=O)[O-])C(=O)N[C@@H](C)C(=O)N[C@H](CCCNC(=N)N)C(=O)N[C@@H](CCC(=O)O)C(=O)N[C@H](CCCNC(=N)N)C(N)=O)cc(=O)oc2c1; assay: Km and kcat/Km of substrates with MMP-2; format: biochemical; settings: other: substrate cleavage by MMP-2
[13] = substrate: COc1ccc2c(CC(=O)N[C@H](CCCNC(=N)N)C(=O)N3CCC[C@H]3C(=O)N[C@@H](CC(C)C)C(=O)NCC(=O)N[C@@H](CCCCOCc3ccccc3)C(=O)N[C@@H](CNc3ccc([N+](=O)[O-])cc3[N+](=O)[O-])C(=O)N[C@@H](C)C(=O)N[C@H](CCCNC(=N)N)C(=O)N[C@H](CCC(=O)O)C(=O)N[C@H](CCCNC(=N)N)C(N)=O)cc(=O)oc2c1; assay: Km and kcat/Km of substrates with MMP-7; format: biochemical; settings: other: substrate cleavage by MMP-7
[14] = substrate: COc1ccc2c(CC(=O)N[C@@H](CCCNC(=N)N)C(=O)N3CCC[C@@H]3C(=O)N[C@@H](CC(C)C)C(=O)NCC(=O)N[C@@H](CC(C)C)C(=O)N[C@H](CNc3ccc([N+](=O)[O-])cc3[N+](=O)[O-])C(=O)N[C@@H](C)C(=O)N[C@H](CCCNC(=N)N)C(=O)N[C@@H](CCC(=O)O)C(=O)N[C@H](CCCNC(=N)N)C(N)=O)cc(=O)oc2c1; assay: Km and kcat/Km of substrates with MMP-7; format: biochemical; settings: other: substrate cleavage by MMP-7

B1: MMP-1 (Homo sapiens) (protein)
chain: FVLTEGNPRWEQTHLTYRIENYTPDLPRADVDHAIEKAFQLWSNVTPLTFTKVSEGQADIMISFVRGDHRDNSPFDGPGGNLAHAFQPGPGIGGDAHFDEDERWTNNFREYNLHRVAAHELGHSLGLSHSTDIGALMYPSYTFSGDVQLAQDDIDGIQAIYGRSQNPVQPIGPQTPKACDSKLTFDAITTIRGEVMFFKDRFYMRTNPFYPEVELNFISVFWPQLPNGLEAAYEFADRDEVRFFKGNKYWAVQGQNVLHGYPKDIYSSFGFPRTVKHIDAALSEENTGKTYFFVANKYWRYDEYKRSMDPGYPKMIAHDFPGIGHKVDAVFMKDGFFYFFHGTRQYKFDPKTKRILTLQKANSWFNCRKN
Q: With B1 as the protein, how does the Km [1] read?
A: 35.1 µM

Q: What about the kcat/Km [1] of the same protein?
A: 0.36 M^−1s^−1×10^4

Q: What about the Km [2] of the same protein?
A: 49 µM

Q: What about the kcat/Km [2] of the same protein?
A: 5.7 M^−1s^−1×10^4

B2: MMP-9 (Homo sapiens) (protein)
chain: MRTPRCGVPDLGRFQTFEGDLKWHHHNITYWIQNYSEDLPRAVIDDAFARAFALWSAVTPLTFTRVYSRDADIVIQFGVAEHGDGYPFDGKDGLLAHAFPPGPGIQGDAHFDDDELWSLGKGVVVPTRFGNADGAACHFPFIFEGRSYSACTTDGRSDGLPWCSTTANYDTDDRFGFCPSERLYTQDGNADGKPCQFPFIFQGQSYSACTTDGRSDGYRWCATTANYDRDKLFGFCPTRADSTVMGGNSAGELCVFPFTFLGKEYSTCTSEGRGDGRLWCATTSNFDSDKKWGFCPDQGYSLFLVAAHEFGHALGLDHSSVPEALMYPMYRFTEGPPLHKDDVNGIRHLYGPRPEPEPRPPTTTTPQPTAPPTVCPTGPPTVHPSERPTAGPTGPPSAGPTGPPTAGPSTATTVPLSPVDDACNVNIFDAIAEIGNQLYLFKDGKYWRFSEGRGSRPQGPFLIADKWPALPRKLDSVFEERLSKKLFFFSGRQVWVYTGASVLGPRRLDKLGLGADVAQVTGALRSGRGKMLLFSGRRLWRFDVKAQMVDPRSASEVDRMFPGVPLDTHDVFQYREKAYFCQDRFYWRVSSRSELNQVDQVGYVTYDILQCPED
Q: B2 was tested. Which Km [3] did it give?
A: 8.2 µM

Q: What about the kcat/Km [3] of the same protein?
A: 133 M^−1s^−1×10^4

Q: What about the Km [4] of the same protein?
A: 6.4 µM

Q: And the kcat/Km [4]?
A: 41.8 M^−1s^−1×10^4

Q: What about the Km [5] of the same protein?
A: 1.4 µM

Q: What about the kcat/Km [5] of the same protein?
A: 191 M^−1s^−1×10^4

Q: What about the Km [6] of the same protein?
A: 6.2 µM

Q: And the kcat/Km [6]?
A: 129 M^−1s^−1×10^4

Q: What about the Km [7] of the same protein?
A: 2.3 µM

Q: What about the kcat/Km [7] of the same protein?
A: 147 M^−1s^−1×10^4

Q: And the Km [8]?
A: 3.3 µM

Q: What about the kcat/Km [8] of the same protein?
A: 31.9 M^−1s^−1×10^4

B3: MMP-2 (Homo sapiens) (protein)
chain: YNFFPRKPKWDKNQITYRIIGYTPDLDPETVDDAFARAFQVWSDVTPLRFSRIHDGEADIMINFGRWEHGDGYPFDGKDGLLAHAFAPGTGVGGDSHFDDDELWTLGEGQVVRVKYGNADGEYCKFPFLFNGKEYNSCTDTGRSDGFLWCSTTYNFEKDGKYGFCPHEALFTMGGNAEGQPCKFPFRFQGTSYDSCTTEGRTDGYRWCGTTEDYDRDKKYGFCPETAMSTVGGNSEGAPCVFPFTFLGNKYESCTSAGRSDGKMWCATTANYDDDRKWGFCPDQGYSLFLVAAHEFGHAMGLEHSQDPGALMAPIYTYTKNFRLSQDDIKGIQELYGASPDIDLGTGPTPTLGPVTPEICKQDIVFDGIAQIRGEIFFFKDRFIWRTVTPRDKPMGPLLVATFWPELPEKIDAVYEAPQEEKAVFFAGNEYWIYSASTLERGYPKPLTSLGLPPDVQRVDAAFNWSKNKKTYIFAGDKFWRYNEVKKKMDPGFPKLIADAWNAIPDNLDAVVDLQGGGHSYFFKGAYYLKLENQSLKSVKFGSIKSDWLGC
Q: Which results are given for B3?
A: Km [9]: 3.6 µM; kcat/Km [9]: 196 M^−1s^−1×10^4; Km [10]: 8.3 µM; kcat/Km [10]: 134 M^−1s^−1×10^4; Km [11]: 3.7 µM; kcat/Km [11]: 60 M^−1s^−1×10^4; Km [12]: 9.9 µM; kcat/Km [12]: 17.8 M^−1s^−1×10^4

B4: MMP-7 (Homo sapiens) (protein)
chain: YSLFPNSPKWTSKVVTYRIVSYTRDLPHITVDRLVSKALNMWGKEIPLHFRKVVWGTADIMIGFARGAHGDSYPFDGPGNTLAHAFAPGTGLGGDAHFDEDERWTDGSSLGINFLYAATHELGHSLGMGHSSDPNAVMYPTYGNGDPQNFKLSQDDIKGIQKLYGKRSNSRKK
Q: B4 was tested. Which Km [13] did it give?
A: 94.7 µM

Q: What about the kcat/Km [13] of the same protein?
A: 0.298 M^−1s^−1×10^4

Q: And the Km [14]?
A: 81.2 µM

Q: And the kcat/Km [14]?
A: 2.2 M^−1s^−1×10^4

Source: patent publication US20040018561A1, “Peptide compounds and their use as protease substrates” (priority 2002, published 2004)
